Laboratory results: patent US7345022B2, “Anti-fibril peptides” (Board of Supervisors of Louisiana State University and …, priority 2002, dated 2008)
*1 amine or outer side, *2 acyl side, *3 side chain or, on linkers, in order; H or OH if unused. Where no end group is shown, it is not given here. [ ]: non-standard residue; d: D form. Dbzg = C-alpha,alpha-dibenzylglycine, O=C(C(Cc1ccccc1)(Cc1ccccc1)N[*:1])[*:2]; Dibg = C-alpha,alpha-diisobutylglycine, CC(C)CC(CC(C)C)(N[*:1])C(=O)[*:2]; Dpg = CCCC(N)(CCC)C(=O)O

Assays:
[1] = Self-aggregation of the peptide; assay type: physicochemical
Protocol: Other strategies have included combinatorial approaches to screen short pentapeptides with L- or D-amino acids to develop small, mostly hydrophobic, inhibitors of Aβ1-40 fibril formation. […] Thus, these peptides can themselves become part of high order aggregates.
(§1) wherein Dibg is C^α,α-diisobutylglycine; Dbzg is C^α,α-dibenzylglycine; and Dpg is C^α,α-dipropylglycine. The AMY-1 peptide inhibits aggregation at concentrations of ˜5 μM when incubated with the amyloidogenic peptide Aβ10-35 in phosphate buffer at 37° C., under conditions where the Aβ10-35 peptide alone would form amyloid fibrils. […] AMY-1 is also depicted in FIG. 3. FIG. 4 depicts the manner in which AMY-1 blocks further extension of a growing β-sheet formed from the Aβ peptide.
(3) AMY-2 self-aggregates at 50 μM.

[2] = target: Aβ1-40 (Homo sapiens, UniProt P05067); assay: Interaction with Aβ1-40: aggregate and fibril formation (visual, scanning probe microscopy); assay type: biochemical; conditions: for product of the interaction with Aβ1-40: preliminary studies
Protocol: (3) AMY-2 self-aggregates at 50 μM. The interaction of β-Amyloid and AMY-2 is apparent visually. […] SPM images were taken of adsorbed peptide material on a hydrophilic surface (mica or muscovite). […] These non-fibrillar aggregates were ˜100 nm in height and appeared as clusters of aggregated peptide material. […] Another study to explore the later β-Amyloid aggregation (i.e., fibril formation) produced an image of elongated fibrils greater than 10 μm long and 8 nm high.

[3] = tested on: PC-12 cells; conditions: MTT, reported by Pallitto et al.; cited from earlier work
[4] = prior pentapeptide inhibitors of Aβ1-40 fibril formation; cited from earlier work
[5] = target: T1, Aβ10-35 (Homo sapiens, UniProt P05067); assay: Inhibition of Aβ10-35 aggregation on incubation in phosphate buffer; assay type: biochemical; conditions: incubated with Aβ10-35 in phosphate buffer at 37° C.
T1 construct: incubated with the amyloidogenic peptide Aβ10-35 in phosphate buffer at 37° C
Protocol: as §1

[6] = tested on: preformed β-amyloid fibrils; assay: Dissolution of preformed fibrils (SPM and TEM); assay type: biochemical; conditions: preliminary
Protocol: Preliminary experiments have confirmed that the novel peptides can promote the dissolution of existing fibrils. The ability of the peptide AMY-1 to dissolve preformed fibrils was assessed with both scanning probe microscopy (SPM) and transmission electron microscopy (TEM). […] A twisting appeared in the middle of the length of the fibril, as if the AMY-1 peptide was interpolating into it.

[7] = adsorbed on hydrophilic surface (mica or muscovite), β-Amyloid1-40

Sequence of Aβ1-40 (P05067 672-711 limits assumed): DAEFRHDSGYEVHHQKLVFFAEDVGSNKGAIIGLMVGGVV
Sequence of preformed β-amyloid fibrils (P05067 681-706 limits assumed): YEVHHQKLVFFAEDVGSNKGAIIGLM

Substance: (Lys)7-Dibg-Val-Dbzg-Phe-Dpg-NH2 (KKKKKKK[Dibg]V[Dbzg]F[Dpg]-NH2; N-terminus assumed; SMILES CCCC(CCC)(NC(=O)[C@H](Cc1ccccc1)NC(=O)C(Cc1ccccc1)(Cc1ccccc1)NC(=O)[C@@H](NC(=O)C(CC(C)C)(CC(C)C)NC(=O)[C@H](CCCCN)NC(=O)[C@H](CCCCN)NC(=O)[C@H](CCCCN)NC(=O)[C@H](CCCCN)NC(=O)[C@H](CCCCN)NC(=O)[C@H](CCCCN)NC(=O)[C@@H](N)CCCCN)C(C)C)C(N)=O) [AMY-2]
- concentration at which the peptide self-aggregates ([1]; preliminary studies, data not shown): 50 µM
- fibril formation (later aggregation study, image) ([2]; 1:1 ratio of 50 μM β-Amyloid and peptide): no fibril formation
- visual appearance of the solution ([2]; added to β-amyloid at 1:1 ratio, 50 μM each, room temperature): the solution rapidly turned opaque
- height of the non-fibrillar aggregates (SPM) [2, 7]: ~100 nm
- morphology of the interaction product (SPM images) [2, 7]: large, amorphous aggregates
- product of the interaction with Aβ1-40 ([2]; data not shown): large, non-fibril aggregate

Substance: KLVF (listed as Homo sapiens)
- protective effect against Aβ toxicity [3]: protective effect against Aβ toxicity

Substance: KLVFF
- self-aggregation (literature) [4]: aggregate and form insoluble precipitates
- protective effect against Aβ toxicity [3]: protective effect against Aβ toxicity

Substance: Lys-Dibg-Val-Dbzg-Phe-Dpg-(Lys)6-NH2 [AMY-1]
- concentration at which the peptide inhibits aggregation [5]: ~5 µM
- self-aggregation [1]: does not aggregate with itself
- fibril formation after long incubation with Aβ1-40 ([2]; 4.5 month-incubation, preliminary, data not shown): no massive fibrils were formed
- product of the interaction with Aβ1-40 ([2]; data not shown): small, non-fibril aggregate
- effect on preformed fibrils, SPM image ([6]; SPM at 10×10 μm^2, on mica): less adsorbed Aβ protein on mica
- effect on preformed fibrils, TEM ([6]; preformed β-amyloid, TEM): the fibrillar structures were substantially frayed
